± gives the uncertainty stated by the source.
assay: amyloid nucleation score (Sup35N fusion, yeast selection) (log enrichment); library NNK3; higher = more nucleation; inactive = no reads after selection
Outline: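 The nucleation score is the log enrichment of output over input reads, calculated with DiMSum and centred on the mode score of non-aggregating sequences. Sequences with under 100 input reads were excluded. Reads came from Illumina sequencing of plasmid inserts from psi-negative yeast expressing Sup35N fused to peptides of 20 random codons, induced 24 hours with 100 μM copper sulfate and grown 7 days at 30°C without adenine and uracil.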

| Substance | amyloid nucleation score |
| --- | --- |
| IRRLSSVCMGCSWYL | inactive |
| ICTPENT | -0.303 ± 0.9 |
| ELAHKIMAM | inactive |
| GLTVVSE | inactive |
| GRIFRLPCYVRLVLVNCRYG | inactive |
| FVMGMNAVQRSLSSIYTLCV | inactive |
| AYMCCYDAYTPRRSRCDWYI | -0.402 ± 1.1 |
| LDNVR | inactive |
| TTFIN | inactive |
| ASKALIWCLSRCIDLVVLRE | inactive |
| FEIECNNGSGASTRLTSRIN | inactive |
| CENYRMGYRNVRVSFAPPFK | inactive |
| RTDLWRIGDVANWIYALP | inactive |
| AYFLLCHHFTKRSWARGWR | 0.314 ± 0.46 |
| RFRFILRCC | inactive |
| VYKWECKDRKYGWRYCAETW | inactive |
| HMLHVWYFLGRQYANTFCYM | inactive |
| SLGVEVKCNTIP | inactive |
| RITSDALG | inactive |
| VMSLTR | inactive |
| PEEDRFLTQSPMLRFIITHM | inactive |
| SCSMHFLVCEDYNRMLALRC | inactive |

| Substance | amyloid nucleation score |
| --- | --- |
| FYMFDSRLLFWRYCCWKFSY | inactive |
| FNFNLKFKTFGKMYFTGPES | 0.628 ± 0.25 |
| SLSWHK | inactive |
| SFTSC | inactive |
| LGNISCELARIELHAPAIR | inactive |
| SISTFYMLNMLKNMHLDGFG | inactive |
| GILYGPCSFWDFVRLEMSRF | -0.504 ± 0.8 |
| FISSLSRSFL | inactive |
| YYGGVLVSHRKPSGVCYGYG | inactive |
| VRTDYWVGYVIFYHIVSRGL | inactive |
| KRLFIILIWKFCTGLCFL | inactive |
| FIRVFYSCIYVDKVLCEGRL | 1.5 ± 0.11 |
| SAYRKTHHSCYNVLYVFMMC | 1.49 ± 0.082 |
| SLVMAEVITPIGLSFCSNYT | inactive |
| HSRYLMQLYVNSFSRFD | 1.28 ± 0.12 |
| SCVRHPIECLKWMTLTGEVV | inactive |
| CRFSGCNESLGWKVGSTLVM | inactive |
| NNYSRVLSSIIEGIVIR | inactive |
| IRNIRFVFLILIDWSSRNSV | inactive |
| LILCRCCSGVYRTRVMKLLL | inactive |
| HHIMIATLSG | 0.711 ± 0.12 |
| GYRYIVDLG | inactive |

| Substance | amyloid nucleation score |
| --- | --- |
| SNWVLACYKI | inactive |
| PRCARYYSKLFFCFSDLFLS | 0.233 ± 0.25 |
| FCEPDWNEMGMDFVRCGPSL | inactive |
| LCDGCKNMFLLPLY | inactive |
| YSGKNLVRSTAGGAVKPVC | inactive |
| EDCRSR | inactive |
| QFKVLYPGREGDAKCHVGAR | inactive |
| FNIHSQIAFLFLCGYLESTV | 1.94 ± 0.075 |
| HRPGFAGGHLWTVFKYVR | inactive |
| SVVLIMKICTVEGYDPQLLF | inactive |
| LNSIG | inactive |
| HFRYY | inactive |
| WAEREDAAVSLGLWYGDTCF | inactive |
| TGIGSLCVLRLTYFIRVSIA | inactive |
| YSCFVRHCVDRFVRNDSDQT | inactive |
| TDVSHGNLHGVSSWSGVPAD | inactive |
| FVGHDTELNPHGRYGCLD | inactive |
| VFAAKGPTMYRSARVS | inactive |
| AVRMICDSCAYSLPTWVDLA | -0.592 ± 1.4 |
| SSHVQRMMRLMVAN | inactive |
| SRSLLEAWDHGTHAGLHVWS | inactive |
| KDQSRSARSST | inactive |

Source: the supplement of paper PMC12042874
